{"source": "patent US20190091296", "proteins": {"B1": {"name": "recombinant human DPP4 (protein)", "chain": "SRKTYTLTDYLKNTYRLKLYSLRWISDHEYLYKQENNILVFNAEYGNSSVFLENSTFDEFGHSINDYSISPDGQFILLEYNYVKQWRHSYTASYDIYDLNKRQLITEERIPNNTQWVTWSPVGHKLAYVWNNDIYVKIEPNLPSYRITWTGKEDIIYNGITDWVYEEEVFSAYSALWWSPNGTFLAYAQFNDTEVPLIEYSFYSDESLQYPKTVRVPYPKAGAVNPTVKFFVVNTDSLSSVTNATSIQITAPASMLIGDHYLCDVTWATQERISLQWLRRIQNYSVMDICDYDESSGRWNCLVARQHIEMSTTGWVGRFRPSEPHFTLDGNSFYKIISNEEGYRHICYFQIDKKDCTFITKGTWEVIGIEALTSDYLYYISNEYKGMPGGRNLYKIQLSDYTKVTCLSCELNPERCQYYSVSFSKEAKYYQLRCSGPGLPLYTLHSSVNDKGLRVLEDNSALDKMLQNVQMPSKKLDFIILNETKFWYQMILPPHFDKSKKYPLLLDVYAGPCSQKADTVFRLNWATYLASTENIIVASFDGRGSGYQGDKIMHAINRRLGTFEVEDQIEAARQFSKMGFVDNKRIAIWGWSYGGYVTSMVLGSGSGVFKCGIAVAPVSRWEYYDSVYTERYMGLPTPEDNLDHYRNSTVMSRAENFKQVEYLLIHGTADDNVHFQQSAQISKALVDVGVDFQAMWYTDEDHGIASSTAHQHIYTHMSHFIKQCFSLP"}}, "key": {"[1]": {"molecular_target": "Comparator: GLP1 analogue having the amino acid sequence characteristics of LY2189265 fused to hIgG4 Fc domain", "sequence (chain, as listed by the source)": "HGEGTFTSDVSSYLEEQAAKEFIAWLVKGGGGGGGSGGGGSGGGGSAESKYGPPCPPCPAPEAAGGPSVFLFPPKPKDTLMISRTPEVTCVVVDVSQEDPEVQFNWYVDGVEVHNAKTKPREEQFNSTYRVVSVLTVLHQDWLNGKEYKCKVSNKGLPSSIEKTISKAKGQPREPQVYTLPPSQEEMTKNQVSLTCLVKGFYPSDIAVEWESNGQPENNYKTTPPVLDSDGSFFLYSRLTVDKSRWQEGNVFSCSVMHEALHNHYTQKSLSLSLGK"}, "[2]": {"molecular_target": "Q-GLP1-hFc"}}}
{"protein": "B1", "values": [{"measurement": "Cleavage % after 4 hours", "setting": "[1]", "result": 4, "unit": "%"}, {"measurement": "Cleavage % after 72 hours", "setting": "[1]", "result": 41, "unit": "%"}, {"measurement": "Cleavage % after 4 hours", "setting": "[2]", "result": 0, "unit": "%"}, {"measurement": "Cleavage % after 72 hours", "setting": "[2]", "result": 0, "unit": "%"}]}
